From US20200048328A1 (Bristol-Myers Squibb, published 2020)
Values belong to the binder of their own block, whether it stands above or below them.

What was measured:
[1] = molecular target: T1, human serum albumin (human, UniProt P02768 25-609); assay: SPR, albumin immobilized;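 further: biacore SPR with human, rhesus or mouse serum albumin amine-coupled to the chip (about 1200 RU), 3 min association, 6-10 min dissociation, reference-subtracted traces fitted with a 1:1 model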
T1 construct: immobilized on chips or coated on plates elsewhere; also called HSA; HuSA

[2] = molecular target: T2, rhesus serum albumin (rhesus, UniProt Q28522 17-600); assay: SPR, albumin immobilized;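 further: biacore SPR with human, rhesus or mouse serum albumin amine-coupled to the chip (about 1200 RU), 3 min association, 6-10 min dissociation, reference-subtracted traces fitted with a 1:1 model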
T2 construct: also called RhSA; Rh-SA

[3] = molecular target: T3, mouse serum albumin (mouse, UniProt P07724 25-608); assay: SPR, albumin immobilized;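 further: biacore SPR with human, rhesus or mouse serum albumin amine-coupled to the chip (about 1200 RU), 3 min association, 6-10 min dissociation, reference-subtracted traces fitted with a 1:1 model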
T3 construct: also called MSA; MuSA

[4] = molecular target: T4, human PCSK9 (human, UniProt Q8NBP7 31-692); assay: PCSK9:LDLR FRET, competition
T4 construct: also called hPCSK9; huPCSK9

[5] = molecular target: T4, human PCSK9; assay: PCSK9:EGFA FRET 1, competition
[6] = molecular target: T4, human PCSK9; assay: PCSK9:EGFA FRET 2, competition
[7] = molecular target: T1, human serum albumin; assay: direct binding ELISA, albumin coated
[8] = molecular target: T2, rhesus serum albumin; assay: direct binding ELISA, albumin coated
[9] = molecular target: T3, mouse serum albumin; assay: direct binding ELISA, albumin coated
[10] = molecular target: T1, human serum albumin; assay: SPR, albumin immobilized, HBSP pH 7.4
[11] = molecular target: T2, rhesus serum albumin; assay: SPR, albumin immobilized, HBSP pH 7.4
[12] = molecular target: T3, mouse serum albumin; assay: SPR, albumin immobilized, HBSP pH 7.4
[13] = molecular target: T1, human serum albumin; assay: SPR, albumin immobilized, acetate pH 5.5
[14] = molecular target: T2, rhesus serum albumin; assay: SPR, albumin immobilized, acetate pH 5.5
[15] = molecular target: T3, mouse serum albumin; assay: SPR, albumin immobilized, acetate pH 5.5
[16] = molecular target: T1, human serum albumin; assay: SPR, albumin immobilized, acetate pH 7.4
[17] = molecular target: T2, rhesus serum albumin; assay: SPR, albumin immobilized, acetate pH 7.4
[18] = molecular target: T3, mouse serum albumin; assay: SPR, albumin immobilized, acetate pH 7.4
[19] = molecular target: T4, human PCSK9; assay: BLI (Octet), biotinylated PCSK9 on tips, no HSA
[20] = molecular target: T4, human PCSK9; assay: BLI (Octet), biotinylated PCSK9 on tips, tandem in complex with excess HSA
[21] = molecular target: T1, human serum albumin; assay: SPR, albumin immobilized, Adnectin 250 nM
[22] = molecular target: T2, rhesus serum albumin; assay: SPR, albumin immobilized, Adnectin 250 nM
[23] = molecular target: T3, mouse serum albumin; assay: SPR, albumin immobilized, Adnectin 250 nM
[24] = molecular target: T5, rat serum albumin (rat, UniProt P02770 25-608); assay: SPR, albumin immobilized, Adnectin 250 nM
T5 construct: also called Rat SA; RSA

B3: PCSK9-PKE2 tandem 4472_D06 (designed binder)
PCSK9 domain: MGVSDVPRDLEVVAATPTSLLISWDAPAEGYGYYRITYGETGGNSPVQEFTVPVSKGTATISGLKPGVDYTITVYAVEFDFPGAGYYHRPISINYRTE
PKE2 domain: GVSDVPRDLEVVAATPTSLLISWDAPAVTVRYYRITYGREVQKYSDLGPLYIYQEFTVPGSKSTATISGLKPGVDYTITVYAVTGSGESPASSKPISINYRTEHHHHHH
notes: not shown: The inter-domain linker; In the real molecule the two parts below are one polypeptide joined by this linker
- IC50 [4]: 1.8 nM
- IC50 [5]: 8.12 nM
- IC50 [6]: 6.51 nM
- EC50 [7]: 139 nM
- EC50 [8]: 93.1 nM
- EC50 [9]: 15.6 nM

B6: PCSK9-PKE2 tandem 4472_B05 (designed binder, not shown: small tags and cut ends)
PCSK9 10Fn3: MGVSDVPRDLEVVAATPTSLLISWDAPAEGYGYYRITYGETGGNSPVQEFTVPVSKGTATISGLKPGVDYTITVYAVEFDFPGAGYYHRPISINYRTE
PKE2 10Fn3: GVSDVPRDLEVVAATPTSLLISWDAPAVTVRYYRITYGREVQKYSDLGPLYIYQEFTVPGSKSTATISGLKPGVDYTITVYAVTGSGESPASSKPISINYRTEHHHHHH
modifications: The two parts are one polypeptide in the real molecule, joined by the undisclosed linker O; they are given here as separate chains.
- IC50 [4]: 1.9 nM
- IC50 [5]: 6.66 nM
- IC50 [6]: 5.55 nM
- EC50 [7]: 85.1 nM
- EC50 [8]: 59.5 nM
- EC50 [9]: 9.3 nM

B8: PCSK9-PKE2 tandem 4472_E04 (designed binder, not shown: small tags and cut ends)
PCSK9 10Fn3: MGVSDVPRDLEVVAATPTSLLISWDAPAEGYGYYRITYGETGGNSPVQEFTVPVSKGTATISGLKPGVDYTITVYAVEFDFPGAGYYHRPISINYRTE
PKE2 10Fn3: GVSDVPRDLEVVAATPTSLLISWDAPAVTVRYYRITYGREVQKYSDLGPLYIYQEFTVPGSKSTATISGLKPGVDYTITVYAVTGSGESPASSKPISINYRTEHHHHHH
modifications: The two parts are one polypeptide in the real molecule, joined by the undisclosed linker Q; they are given here as separate chains.
- IC50 [4]: 2 nM
- IC50 [5]: 9.45 nM
- IC50 [6]: 7.54 nM
- EC50 [7]: 101 nM
- EC50 [8]: 64.8 nM
- EC50 [9]: 8.9 nM

B10: 5963_D01.PS5-2 (designed binder)
chain: MGVSDVPRDLEVVCATPTSLLISWDAPAVTVRYYRITYGREVQKYSDLGPLYIYQEFTVPGSKSTATISGLKPGVDYTITVYAVTGSGESPASSKPISINYRTPHHHHHH
- koff [21]: 0.000247 s⁻¹
- koff [22]: 0.000313 s⁻¹
- koff [23]: 0.000499 s⁻¹
- koff [24]: 0.000858 s⁻¹

B13: 5963_A02.PS5-2 (designed binder)
chain: MGCSTSGVSDVPRDLEVVAATPTSLLISWDAPAVTVRYYRITYGREVQKYSDLGPLYIYQEFTVPGSKSTATISGLKPGVDYTITVYAVTGSGESPASSKPISINYRTPHHHHHH
- koff [21]: 0.000253 s⁻¹
- koff [22]: 0.000313 s⁻¹
- koff [23]: 0.000492 s⁻¹
- koff [24]: 0.000902 s⁻¹

B14: 5916_A04.PS5-2 (designed binder)
chain: MGVSDVPRDLEVVAATPTSLLISWDAPAVTVRYYRITYGREVQKYSDLGPLYIYQEFTVPGSKSTATISGLKPGVDYTITVYAVTGSGESPASSKPISINYRTPEDEDGCHHHHHH
- koff [21]: 0.000148 s⁻¹
- koff [22]: 0.000172 s⁻¹
- koff [23]: 0.000307 s⁻¹
- koff [24]: 0.000547 s⁻¹

Second part, the binder after the results:

- Kd [1]: 68.4 nM
- koff [1]: 0.000362 s⁻¹
- kon [1]: 5300 M⁻¹ s⁻¹
- Kd [2]: 71.9 nM
- koff [2]: 0.000415 s⁻¹
- kon [2]: 5770 M⁻¹ s⁻¹
- Kd [3]: 20 nM
- koff [3]: 0.0003 s⁻¹
- kon [3]: 15000 M⁻¹ s⁻¹
- IC50 [4]: 1.6 nM
- IC50 [5]: 7.67 nM
- IC50 [6]: 5.68 nM
- EC50 [7]: 67.3 nM
- EC50 [8]: 40.1 nM
- EC50 [9]: 4.2 nM
- Kd [10]: 61.4 nM
- koff [10]: 0.000292 s⁻¹
- kon [10]: 4760 M⁻¹ s⁻¹
- Kd [11]: 64.9 nM
- koff [11]: 0.000332 s⁻¹
- kon [11]: 5110 M⁻¹ s⁻¹
- Kd [12]: 21.8 nM
- koff [12]: 0.00033 s⁻¹
- kon [12]: 15200 M⁻¹ s⁻¹
- Kd [13]: 35.2 nM
- koff [13]: 0.000478 s⁻¹
- kon [13]: 13600 M⁻¹ s⁻¹
- Kd [14]: 91.1 nM
- koff [14]: 0.000788 s⁻¹
- kon [14]: 8640 M⁻¹ s⁻¹
- Kd [15]: 114 nM
- koff [15]: 0.00152 s⁻¹
- kon [15]: 13400 M⁻¹ s⁻¹
- Kd [16]: 64.9 nM
- koff [16]: 0.000383 s⁻¹
- kon [16]: 5910 M⁻¹ s⁻¹
- Kd [17]: 65.4 nM
- koff [17]: 0.000408 s⁻¹
- kon [17]: 6240 M⁻¹ s⁻¹
- Kd [18]: 26.1 nM
- koff [18]: 0.000362 s⁻¹
- kon [18]: 14100 M⁻¹ s⁻¹
- Kd [19]: 0.724 nM
- koff [19]: 0.0002 s⁻¹
- kon [19]: 281000 M⁻¹ s⁻¹
- Kd [20]: 1 nM
- koff [20]: 0.000209 s⁻¹
- kon [20]: 207000 M⁻¹ s⁻¹
B1: PCSK9-PKE2 tandem 4472_E06 (designed binder)
PCSK9 domain: MGVSDVPRDLEVVAATPTSLLISWDAPAEGYGYYRITYGETGGNSPVQEFTVPVSKGTATISGLKPGVDYTITVYAVEFDFPGAGYYHRPISINYRTE
PKE2 domain: GVSDVPRDLEVVAATPTSLLISWDAPAVTVRYYRITYGREVQKYSDLGPLYIYQEFTVPGSKSTATISGLKPGVDYTITVYAVTGSGESPASSKPISINYRTEHHHHHH
modifications: The real molecule is ONE polypeptide: PCSK9 domain, undisclosed linker I (a code letter), PKE2 domain. It is given here as two chains because the linker letters are unknown.
notes: also called 4427_E06; not shown: The inter-domain linker

- IC50 [4]: 1.7 nM
- IC50 [5]: 6.32 nM
- IC50 [6]: 5.22 nM
- EC50 [7]: 80.2 nM
- EC50 [8]: 54.1 nM
- EC50 [9]: 9.5 nM
B2: PCSK9-PKE2 tandem 4472_D08 (designed binder, not shown: small tags and cut ends)
PCSK9 10Fn3: MGVSDVPRDLEVVAATPTSLLISWDAPAEGYGYYRITYGETGGNSPVQEFTVPVSKGTATISGLKPGVDYTITVYAVEFDFPGAGYYHRPISINYRTE
PKE2 10Fn3: GVSDVPRDLEVVAATPTSLLISWDAPAVTVRYYRITYGREVQKYSDLGPLYIYQEFTVPGSKSTATISGLKPGVDYTITVYAVTGSGESPASSKPISINYRTEHHHHHH
modifications: The two parts are one polypeptide in the real molecule, joined by the undisclosed linker N; they are given here as separate chains.

- IC50 [4]: 1.3 nM
- IC50 [5]: 8.76 nM
- IC50 [6]: 6.24 nM
- EC50 [7]: 85.3 nM
- EC50 [8]: 58.1 nM
- EC50 [9]: 13.2 nM
B4: PCSK9-PKE2 tandem 4472_H11 (designed binder, not shown: small tags and cut ends)
PCSK9 10Fn3: MGVSDVPRDLEVVAATPTSLLISWDAPAEGYGYYRITYGETGGNSPVQEFTVPVSKGTATISGLKPGVDYTITVYAVEFDFPGAGYYHRPISINYRTE
PKE2 10Fn3: GVSDVPRDLEVVAATPTSLLISWDAPAVTVRYYRITYGREVQKYSDLGPLYIYQEFTVPGSKSTATISGLKPGVDYTITVYAVTGSGESPASSKPISINYRTEHHHHHH
modifications: The two parts are one polypeptide in the real molecule, joined by the undisclosed linker P (a code, not a proline); they are given here as separate chains.

- IC50 [4]: 1.4 nM
- IC50 [5]: 7.45 nM
- IC50 [6]: 4.83 nM
- EC50 [7]: 124 nM
- EC50 [8]: 98.2 nM
- EC50 [9]: 14.8 nM
B5: PCSK9-PKE2 tandem 4472_B03 (designed binder)
PCSK9 domain: MGVSDVPRDLEVVAATPTSLLISWDAPAEGYGYYRITYGETGGNSPVQEFTVPVSKGTATISGLKPGVDYTITVYAVEFDFPGAGYYHRPISINYRTE
PKE2 domain: GVSDVPRDLEVVAATPTSLLISWDAPAVTVRYYRITYGREVQKYSDLGPLYIYQEFTVPGSKSTATISGLKPGVDYTITVYAVTGSGESPASSKPISINYRTEHHHHHH
notes: as for B3

- IC50 [4]: 1.5 nM
- IC50 [5]: 5.66 nM
- IC50 [6]: 4.35 nM
- EC50 [7]: 102 nM
- EC50 [8]: 63.1 nM
- EC50 [9]: 13.1 nM
B7: PCSK9-PKE2 tandem 4472_E05 (designed binder, not shown: small tags and cut ends)
PCSK9 10Fn3: MGVSDVPRDLEVVAATPTSLLISWDAPAEGYGYYRITYGETGGNSPVQEFTVPVSKGTATISGLKPGVDYTITVYAVEFDFPGAGYYHRPISINYRTE
PKE2 10Fn3: GVSDVPRDLEVVAATPTSLLISWDAPAVTVRYYRITYGREVQKYSDLGPLYIYQEFTVPGSKSTATISGLKPGVDYTITVYAVTGSGESPASSKPISINYRTEHHHHHH
modifications: The two parts are one polypeptide in the real molecule, joined by the undisclosed linker R; they are given here as separate chains.

- IC50 [4]: 1.1 nM
- IC50 [5]: 5.14 nM
- IC50 [6]: 4.44 nM
- EC50 [7]: 144 nM
- EC50 [8]: 84 nM
- EC50 [9]: 16.7 nM
B9: PCSK9-PKE2 tandem 4472_A04 (designed binder)
PCSK9 domain: MGVSDVPRDLEVVAATPTSLLISWDAPAEGYGYYRITYGETGGNSPVQEFTVPVSKGTATISGLKPGVDYTITVYAVEFDFPGAGYYHRPISINYRTE
PKE2 domain: GVSDVPRDLEVVAATPTSLLISWDAPAVTVRYYRITYGREVQKYSDLGPLYIYQEFTVPGSKSTATISGLKPGVDYTITVYAVTGSGESPASSKPISINYRTEHHHHHH
notes: as for B3

- koff [21]: 0.00025 s⁻¹
- koff [22]: 0.000313 s⁻¹
- koff [23]: 0.000507 s⁻¹
- koff [24]: 0.000848 s⁻¹
B11: 5963_E01.PS5-2 (designed binder)
chain: MGVSDVPRDLEVVAATPTSLLISWDAPAVTVRYYRITYGREVQKYSDLGPLYIYQEFTVPGSKSTACISGLKPGVDYTITVYAVTGSGESPASSKPISINYRTPHHHHHH

- koff [21]: 0.000211 s⁻¹
- koff [22]: 0.000272 s⁻¹
- koff [23]: 0.000452 s⁻¹
- koff [24]: 0.000786 s⁻¹
B12: 5916_E03.PS5-2 (designed binder)
chain: MGVSDVPRDLEVVAATPTSLLISWDAPAVTVRYYRITYGREVQKYSDLGPLYIYQEFTVPGSKSTATISGLKPGVDYTITVYAVTGSGESPASSKPISINYRTPCHHHHHH
